Reference: the DeepSol protein solubility set

Assay: soluble on expression in E. coli; label from the status in PepcDB or PDB records

| Sequence | soluble on expression in E. coli |
| --- | --- |
| MAHHHHHHSLITIETVLTILKNNANFREIIDGKHYQYKYSNPEVAFHHISYDSRDIKASTLFFVKGATFKKEFLEKAIESGLTFYVAEKDYQVGIPLILVNNIKNAMCLIAKEFYDNPQDKLKTLAFTGTKGKTTAAYFAYHILKQGYRPAMISTMNTTLDGKTFFKSKLTTPESLDLFKMMAQAVANGMTHLIMEVSSQAYLVGRVYGLTFDVGVFLNISPDHIGPIEHPTFEDYFYHKRLLLKHSRYVIVNSQMNHFALIKEQVADQPHDFYGKYSDNQIINSKAFSFDLTGKLAGHYDIQLTGSFNQENAVAAALACLQLGASQTDIQKGIVQTTVPGRMEVLIQKNGAKVFVDYAHNGDSLEKLLSVVEEHQKGTLILILGAPGNKGESRRADFGYVINAHPELQVILTADDPNNEDPQLISQEIAHHIKRPVNIIVDRKQAIQKAMSLTQSENDAVIIAGKGADAFQIIKGKRTAYAGDIEVARKYLEG | soluble |
| RRENARRFDRKQYDFVDIDECAIQTKTYPGSDHDMAQDWLQKQMMILKPKYREPLLLSLVAGLNHDEIAQALRLNHNTVATRLFRARNQLIAQQGNH | not soluble |
| MHHHHHHSSGVDLGTENLYFQSMSTDSVISSESGNTYYRVVLIGEQGVGKSTLANIFAGVHDSMDSDCEVLGEDTYERTLMVDGESATIILLDMWENKGENEWLHDHCMQVGDAYLIVYSITDRASFEKASELRIQLRRARQTEDIPIILVGNKSDLVRCREVSVSEGRACAVVFDCKFIETSAAVQHNVKELFEGIVRQVRLRRDSKEKN | soluble |
| MSWWQDMDQRGGVSSPSGALASAEPAPASVTLAELLHLVQKGQEVPGLEKRHITATHGEPTASLLPRRPKPWEDAGSAASPCTIALDTRTQPPTIEERSRGSPAAQLDGGPRVS | soluble |
| MNQLLINKHEKFFNRCLIGLPSTAQSEDSNKLAIIYFCLHGLQLIQKFQFTNQELIYYRNFIINQFMIENNQIISFRSTHYFQKTNQKYDCPNLSSTLFALYNLLILKSPYHTIINRKKIMNFLCKCQVKDGINKGGFVPTLYYNEENGDYKQYGEPDLRVCYMALLIRHLMKYDDNNNNNNREDSNETDIDLISLQQFILDRININGGFSSTIMDESHLGFTFCAIASLKLLNYPLEKLKSTKEWLIHRQVDYPENLYPKDGNGDGNGNGDNYEYYRNIDIGGFNGRENKLSDTCYSWWCTGSLYNIDVNFIKLVDLNKAEDYLLNKTQNQLFGGFGRDPDSTPDPMHSYLALASLSLWNHEKFALQEINPILTITKESYQFFKEEIKY | soluble |
| MSSPSSASESDSSQMSLLATPPVAIRRPLPYPRDIISSPLEVATPVTVSPTDFMPIRELVTTPYHISTPVLITPVDARSISREIVRVNRIRRVRTRQASRSVFNSVRRRLSMITANRTEIQMNTPQTLPRSKRIDNTSTAMEPVSSNAFQKIISEILNNSPACTETINSTIIPSNSSNCAKLREFNRLESIGIAQMAVENENEILEALDFIEWNIRLMSCESDYIDKVLEDLENEKLNKQNKWERIELILSLIQD | not soluble |
| MKQFSGLSRTIQGNHLLDTCAIDILKIGHRPLVLCAKQEYNTTVESFVKVLTCHGLIVKIVYMEEWDQNSVEECGEVGFRHRADHIIGIGNSSVAACTKAVADLLDLPAVLIPTSPFTTLPWVSVENKKRERPLFNESIQLIIADREQLLTQPTSELINGVVNTLLYLAAIKEVKRNHLFSLVDDILIRSFESVLLRGSLQAIEDFEARILSKEVQDVLEVLSTCVTLDLPSDAWDVIQQIESKLSERREDLVDEPLKRNVVLYLLLSYLTQESEEFQARLKWCQQLLLSANSSNLLSLEAVLKEIALEMGEDGSTRC | soluble |
| MSGGEAQGKRKQWQRWLSPRYVWRRLRHNIGPKLVSLGAALVLWSVSTGDQRAQVQQSYDVPITVRDTTGASGSDERRAVSDLNPETVRVTLTGRPERLNELRPSNIEALLDVTGVPEGSFNRPVQIVAPSNTVLSKQVPERVQGFVDSELSRTLTVTLGVASPAENSLPRFEVRPSEVQATAPSRVLNQVTRVVTSPVDLDPGEEREAPLIALDSRGRVVEPVTLHPASVSVQRLDTGTLPVKTLPVVLGAPPASLRVQSQTLQPRTVRVVAAPELLGRLREVSGQVDYRVGSSTLPVTLRLPDGAQALETVSVSLVVERIKAPDPGAGAPTQQKSGASSSSGGNLEHHHHHH | soluble |
| MGSDKIHHHHHHMNSALYVGKVRHRRFTPVTHRFDYALFMALIDLDEIPALPHAGIALERFAPASFYRGDYLGGGDIKTKAQDRIAELTGERLTGKVLLLCQLRYLGCYFNPVNFYYLYDEHNQLRWLLAEVRNTPWNERHTYAVVPDGSTTVSKAFHVSPFNPMDMVYHWRLTPPVERLRIHIENHRQGREFDATLLLHRQPLTRAALRKQLWSLPLMTIKIACTIYWQALKLWIKRSPVYPHPQSGRKDNP | not soluble |
| GDWLDLNTTSSVETGQAIVTLDDAQIALNGIYRLASGHSYYGDNYWYYGDCRAADVQARITKGDGKRVSPYYEYNVLASDNLNIVLPWNTVYKVIRQTNNLIQKIESGSIQSSDTKELNRIKSEALVMRGLSLFNLTRLFGMPYTNDKGASLGVPIETSPSDPTHKPSRSTVAQCYEQVVSDMSNALSGLRQETSNGYINYWAAQALLSRVYLNMGEYQKAYDAATDVIKNNGGRYQLYSYEEYPNVWGQDFQSESLFELYITLSEPSGGTGGEGAPMVYANEATVDWNNLILSEDFLNLLNEDPKDVRHCLTKESVIENNTGLPAAAMHEKVYLAKFPGKTGDDPKTNNICIIRLSEVYLNAAEAGLKKGTDIEEAQGYLNDIISRRTTDTSQQVSTETFTLDRILKERRKELVGEGEVFYDYLRNGLAIERKGSWHLETLKASNAQKIEATDLRIALPIPQSEIDANPNIQQNPR | soluble |
| RCIKLYRARKGNAAVKRHMRDTLSLNDAVEKVRAVDAPLSKLAQEALQSYRNYRRNEASELAQALPLNEYLVIQIRNSMAQIMRRFD | not soluble |
| MGSDKIHHHHHHMATVISMINLKGGVGKTTLTVAMAEFMAAEYGLKVLVVDLDPQTNATVALINELEWRKRNIRGQTLLNIFLDHLSKYQVFSLEEAIVHNVSNVNGGIEGLDLLPSSIDLIEVHDEFLQAIPSLPINPLHLLDDVLRAALSAYDIVLIDCPPDLGLICQNGLMISDYYIIPTIPDILSTYGIPQIINRIGRLQRENSISIQPLGLVISKYRQQSEIHKNQANLLKIHAPKAGYRQVFNTFIPEGNLAAMVMDYTLHFNSLREKYNYSKYYQIYKALTEEVLSCVQ | not soluble |
| MGYDVTRFQGDVDEDLICPICSGVLEEPVQAPHCEHAFCNACITQWFSQQQTCPVDRSVVTVAHLRPVPRIMRNMLSKLQIACDNAVFGCSAVVRLDNLMSHLSDCEHNPKRPVTCEQGCGLEMPKDELPNHNCIKHLRSVVQQQQSRIAELEKTSAEHKHQLAEQKRDIQLLKAYMRAIRSVNPNLQNLEETIEYNEILEWVNSLQPARVTRWGGMISTPDAVLQAVIKRSLVESGCPASIVNELIENAHERSWPQGLATLETRQMNRRYYENYVAERIPGKQAVVVMACENQHMGDDMVQEPGLVMIFAHGVEEI | soluble |
| MHHHHHHPMEPEIKIVNVVVSTKIGDNIDLEEVAMILENAEYEPEQFPGLVCRLSVPKVALLIFRSGKVNCTGAKSKEEAEIAIKKIIKELKDAGIDVIENPEIKIQNMVATADLGIEPNLDDIALMVEGTEYEPEQFPGLVYRLDDPKVVVLIFGSGKVVITGLKSEEDAKRALKKILDTIKEVQEL | soluble |
| MSLDSGRNGGGPSVFRRDLLRSIGAAGLAGLAGCGGSEGVTDGDGTPAPTPVGNFPVSGDSVTFGFNVASSGAYSTAGKQEIRGFKLAVKHINNGGGWVTSEKYNSPLDGDGLLGKDVEFVVEDTGGSSDTARSNAQRLVDGEEVIMLAGGTSSSAGLANQEVAAQNQVIYMATMANTNSLTGADCNRYSFREMFNNHMAAEALAPALSDEFGKNANYVKIFQDNDWGQTLRDDMDAALGNVGWAPVWDTTAQVGTSDYSQYAADIKSVDFDVIVLGLGGLDAVNALRAFRDEFPESNIVLPMASREIAETAGGAIEGVIGTVAWSRAINSPLSNTFRETFREEYGSSTGSSKSAAPSGAAHIAYTQALQYASAVERAGTFNPIDVIGALEGHEYDAGLGPQTLRACDHQAMRQVPVVRGKSEIQQSYGTYYDLIGEPADVQYACDSGPAANCSLGGSEGHHHHHH | not soluble |
| MGSDKIHHHHHHESSKSGYQTTGENNSSDYQGIIEDGEYKTSKSRGVGISQNSDNLLNLKSFEAGLTTISKDHFSTKSYIFQEGQYLNKATIQDWLGRKSSSNPEGLNPSDNGKKEANKRNPIYVQQIEEQDYMKQNNGKLELAGMTIGIGMNQKDYYQKEQYGATYSTTISKEKRIEEGKIAAKKVLARVRQKVGNNVPIVIAMFAQAPNDSLVGGYFYSYTVSKSGTDIGSWTETNIKSYVLPATEDNKLPNDNDSTSFDNFQKEVKNFFPNISNVTGQGQYKDKTLQGLHITITTQFYSETEITSFTQYVAQAAKSYLPSGIPVDIKINGSDGETQSFVSTTGGNGGYYTHVFGSY | not soluble |
| LHPFFRSFALRASAHPVLSADFESAFAAARHAAPATAAAVQTAERLPEWNLTDLYPAMDSPELKADLDKADVACKAFETAFKGKLAALLALPDGGAALGAAVKSYEEVDDLLGRIASYGSLIYAGDTSDPARAKFYGDIQERLTDASTHLLFFTLEMNRLDDAALEAAMADPALGYYRPWVEDLRKDKPYQLDDKIEQLFHEKSNPSRGAWSRLFDETISSLRFTVDGQDLAIEPTLNLMQDPREEVRKSAGLALADTFGKNLRLFTLITNTLAKDKEISDRWRGFEDVASSRHLANRVEKEVVDAMVEAIRVSFPRLSHRYYALKARWFGKDRLEFWDRNAPLPKVETRDIGWGEAKDTVLSAYGAFSPKMADIAKTFFEKSWIDAPVRPGKSPGAFAHPTVPSAHPYVLLNYQGKPRDVMTLAHELGHGVHQVLAARQGALMAPTPLTLAETASVFGEMLTFRRLLDGAETPRARKIMLAQKVEDMINTVVRQTAFYTFERDVHIERRQGELTSEKIGEIWMKVQGESLGPAIHLGAGYETFWTYIPHFIHSPFYVYAYAFGDCLVNSLYAVYENAADGFADRYLEMLSAGGTKHHAELLAPFGLDARDPAFWQTGLSLIDRMISELESMEG | soluble |
| MGIFRIQAYFFALIIALFFVACDSGENFKALNSDKTYNFAYNGFEKSLKLNDKAQNFALVFFTKDCGVCKEQIPILQNLAKNYDFNIFVVLGDANDANDAKAWADEKGLSNLAMFYEKRAAKYLSSAIGEIYGVPVLSFFKEGKMDEKFIGLTPYSILEKEIKKVKS | not soluble |
| MTVPEEAQTLIGKHYRAPDHFLVGREKIREFAVAVKDDHPTHYSEPDAAAAGYPALVAPLTFLAIAGRRVQLEIFTKFNIPINIARVFHRDQKFRFHRPILANDKLYFDTYLDSVIESHGTVLAEIRSEVTDAEGKPVVTSVVTMLGEAAHHEADADATVAAIASILEHHHHHH | soluble |
| MKNEKIVVLYGGDSPEREVSLKSGKAVLDSLISQGYDAVGVDASGKELVAKLLELKPDKCFVALHGEDGENGRVSALLEMLEIKHTSSSMKSSVITMDKMISKEILMHHRMPTPMAKFLTDKLVAEDEISFPVAVKPSSGGSSIATFKVKSIQELKHAYEEASKYGEVMIEQWVTGKEITVAIVNDEVYSSVWIEPQNEFYDYESKYSGKSIYHSPSGLCEQKELEVRQLAKKAYDLLGCSGHARVDFIYDDRGNFYIMEINSSPGMTDNSLSPKSAAAEGVDFDSFVKRIIEQAQ | not soluble |
